Literature values as cited in patent US7723472B2, “Extracellular matrix binding chimeric proteins and methods of use thereof” (The Regents of the University of California, priority 2005, dated 2010).

Conditions: published value for yCD, Kievit et al. 1999

B1: yCD: Yeast cytosine deaminase (protein, UniProt Q12178 1-158, looked up)
Cytosine deaminase: MVTGGMASKWDQKGMDIAYEEAALGYKEGGVPIGGCLINNKDGSVLGRGHNMRFQKGSATLHGEISTLENCGRLEGKVYKDTTLYTTLSPCDMCTGAIIMYGIPRCVVGENVNFKSKGEKYLQTRGHEVVVVDDERCKKIMKQFIDERPQDWFEDIGE
Km: 800 µM
Vmax: 68 μM/min/μg enzyme
